Reference: US20220177590A1 (REMEGEN, published 2022)

How the values were obtained:
PD-L1 (Fc Tag) [1] = biological target: T1, PD-L1 (Fc Tag) (human, UniProt Q9NZQ7 19-239, limits assumed); assay: competition ELISA, PD-L1 (Fc Tag) coated, human PD-1 at 6 ug/mL as competitor, anti-human IgG-Fc-HRP detection
T1 construct: also called human PD-L1; not shown: Fc tag
Procedure: (§1) The ability of hAAG5D8 to compete with PD-1 to bind to PD-L1 was tested by ELISA. PD-L1 (Fc Tag) was diluted to 1 μg/mL with a coating buffer (6 mM Na₂CO₃, 14 mM NaHCO₃), and then added 100 μL to each well followed by overnight incubation at 4° C. The plate was then washed with PBST, and added with 250 μL of a blocking solution (3% BSA/PBST) to each well to block for 2 h at 25° C. Afterwards, the plate was washed with PBST and added with 50 μL of human PD-1 at a concentration of 6 μg/mL as well as 50 μL of a gradiently diluted hAAG5D8 solution (at a concentration of 8000 ng/mL, 2000 ng/mL, 500 ng/mL, 250 ng/mL, 125 ng/mL, 62.5 ng/mL, 31.25 ng/mL, 6.25 ng/mL, or 1.25 ng/mL) to each well followed by mixing well and incubation at 25° C. for 2 h. Next, the plate was washed with PBST and added with 100 μL of an enzyme-labeled secondary antibody (goat anti-human IgG-Fc-HRP diluted 1:5000) to each well, followed by incubation at 25° C. for 1 h. Finally, color development was performed and values were read at 450 nm. A four-parameter equation was used for curve fitting to calculate the EC₅₀ value.
(§2) Results and conclusions: EC₅₀ value and the competitive binding curve of hAAG5D8 competitively binding to human PD-L1 are shown in Table 8 and FIG. 2, respectively.

[2] = biological target: T2, human PD-L1 (R&D company), immobilized on Ni-NTA probe (human, UniProt Q9NZQ7 19-239); assay: BLI, PD-L1 immobilized on Ni-NTA probe, hAAG5D8 at 100, 50 and 25 nM in solution
T2 construct: Bought protein; also called PD-L1 solution; not shown: His tag only implied by capture on the Ni-NTA probe
Procedure: The affinity of hAAG5D8 to human PD-L1 was detected using biolayer interferometry (BLI). The wells in A-D columns 1, 3, and 5 of a black 96-well plate were added with a PBS solution as baseline 1, baseline 2 and a dissociation solution, respectively. The wells in column 2 were added with a PD-L1 solution (R&D company), in column 4 with a hAAG5D8 solution (The concentrations were as follows: 100 nM, 50 nM, 25 nM, and 0 nM), in column 10 with an imidazole solution, in column 11 with water, and in column 12 with a nickel sulfate solution. Ni-NTA probe (Fortebio) was employed in the experiment. First, the probe was dipped in A-D column 1 for 180 seconds to stabilize the baseline. The Ni-NTA probe was then dipped in A-D column 2 for 300 seconds to immobilize PD-L1 on the probe. The Ni-NTA probe was then dipped in A-D column 3 for 120 seconds to stabilize the baseline. The Ni-NTA probe was then dipped in A-D column 4 for 600 seconds to allow the binding of hAAG5D8 with a different concentration to the immobilized PD-L1 protein on the probe. The Ni-NTA probe was then dipped in A-D column 5 for 600 seconds to allow the antibody to dissociate spontaneously. Finally, the Ni-NTA probe was dipped in A-D columns 10, 11, and 12 successively to force the immobilized PD-L1 dissociating from the probe. […]

PD-L1 (Fc Tag) [3] = biological target: T1, PD-L1 (Fc Tag); assay: competition ELISA, PD-L1 (Fc Tag) coated, human PD-1 at a fixed concentration as the competing ligand, hAAG5D8 titrated
Procedure: as §1, §2

T1 sequence (Q9NZQ7 19-239 limits assumed): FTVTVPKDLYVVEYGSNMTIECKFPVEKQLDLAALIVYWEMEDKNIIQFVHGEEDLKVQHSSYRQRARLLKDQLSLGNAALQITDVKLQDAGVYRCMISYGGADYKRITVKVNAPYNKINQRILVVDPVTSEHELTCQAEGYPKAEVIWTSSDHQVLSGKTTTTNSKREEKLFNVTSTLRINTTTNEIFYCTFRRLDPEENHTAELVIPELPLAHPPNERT
T2 sequence (Q9NZQ7 19-239): as the sequence (Q9NZQ7 19-239 limits assumed) above

EC50 (PD-L1 (Fc Tag) [1]): 0.716 nM
Kd [2]: 0.0762 nM
IC50 (read off the curve) (PD-L1 (Fc Tag) [3]): ~0.1 µg/mL
B1: anti-PD-L1 humanized antibody hAAG5D8 (antibody, human IgG1, kappa, V domains shown)
VH: QVQLQESGPGLVKPSETLSLTCTVSGFSLSRYSVHWIRQPPGKGLEWLGMIWGVGTTDYNSALKSRLTISKDTSKNQFSLKLSSVTAADTAVYYCARNWGTADYFDYWGQGTTVTVSS
VL: DIVLTQSPASLAVSPGQRATITCRASKSVHTSGYSYMHWYQQKPGQPPKLLIYLASNLESGVPARFSGSGSGTDFTLTINPVEANDTANYYCQHSGELPYTFGGGTKVEIKR
notes: Humanized from murine mAAG5D8 on a human IgG1 framework; also called anti-PD-L1 antibody
